Laboratory results: the RNAGym collection of RNA variant scans (doi:10.1021/acssynbio.7b00057)

B1: Pistol ribozyme (parent)
chain: GGGUCGUUGUUCCAUAAUCGCGUGGAUAUGGCACGCAAGUUUCUACCGGGCACCGUAAAUGUCCGACUGGAGCCGUUCGGGCGGCUAUAAACAGACCUCAGGCCCGAAGCGUGGCGGCACCUGCCGCCGGUGGUAAAAAAGAUCGGAAGAGCACACGUCU

Variants of: B1
Experiment: aptazyme ON/OFF ratio, guanine; higher = stronger switching; co-transcriptional cleavage with and without guanine

Variant	aptazyme ON/OFF ratio
U10C U11G C12A	1.1
G9A U10A U11A C12G C13U	1.23
U8A G9C U10C U11C C12G C13A	1.01
U7C U8A U10G U11G C12G C13G	1.17
U7G U8A G9A U10C U11A C12U C13A	1.09
U8G G9C C12A C13G	1.03
U8C U10G U11G C12A	1.18
U7C U8G G9C U10A C12A	1.2
U7A U8C G9U U11A C12G C13G	1.22
U10A U11G C12A	1.13
U7C G9C U10A U11C C12U C13G	1.03
U7C G9U U10A C12U	1.37
U8A G9A U10A U11G C13U	1.18
U7G U8A G9A U10A U11A C12U C13A	1.15
U7C U8A G9A U10G U11A C12U C13U	1.06
U7A U8C U10G U11A C12U C13G	1.14
U7A U8A G9C U11A C12U C13G	1.14
U7G U8A G9A U10C U11G C12U C13G	1.14
U7G U8A U11G C13G	1.15
U7A U8G G9A U11C C12U C13G	0.973
U7C G9C U11G C12G C13A	1.08
G9C U10A U11G	2.06
U7G U8G U11A C12A C13A	1.34
U7G G9A C12U C13A	1.14

Variant	aptazyme ON/OFF ratio
U7G U8C G9A U11G C12U C13G	1.07
U7A U8C U11G C13A	1.12
U7C U8A G9A U10A U11C C12G C13G	1.35
U7G U8G U10A C13G	1.29
U7G G9U U10A U11G C12G C13G	1.14
U7G U8C G9A U10C U11C C12U C13A	1.04
U7A G9U U10A C12A C13U	1.19
U7C U8G G9C U10A C12G	1.14
U7G G9A U10C U11G C12U	1.19
U7G U8A G9U U10A U11G C13A	1.09
U7C U10C C12A	1.26
U8C G9A U10C U11C C12U C13U	1.09
U7A G9U U10G U11C C13G	1.08
U7G U8A G9C U10A C12U C13A	1.03
U7C U8C U10A U11C C13G	1.1
U8A G9U C12A C13G	1.16
U8C U10G U11G C12A C13U	1.22
U7A U8G G9A U10A U11C C12G C13G	1.08
U7A U8C G9A U10A U11G C12U	1.45
U7G G9U U10C U11A C12U C13A	1.33
U7C U8C U10C U11G C13G	1.24
U7C U8A G9A U10A C13A	1.15
U8G G9A U11G C13U	1.04
U7G U8G G9U U10G U11A C12G C13G	1.15

Variant	aptazyme ON/OFF ratio
U7A U8C G9U U10A C13A	1.18
U7G U8A G9A C12U	1.12
U7G U8C G9C U10C U11A C13A	1.04
U7A U8C G9C U10C U11A C12U C13U	1.02
G9C C12U C13A	1.14
U8C G9C U10C U11A C12A C13A	1.04
U7A U8G U10C U11C C12A C13U	1.49
U7A G9U U10C C12G C13A	1.07
U7G U8G G9U U10C C12G C13G	1.1
U8A G9A U11C C13U	1.04
U7A U8A C12G C13G	1.35
U8A G9A U10G U11G C12U C13A	1.36
U7G G9U U10A U11C C13G	1.12
U7C U8G G9A U11A C12U C13A	1.19
G9U U10A U11C C12G C13U	1.47
U8A U10G U11G C12U C13G	1.28
U7A G9U U10C C12G C13U	1.4
U7C U8A G9A U10A U11G C12U C13G	1.17
U7A U8G G9C U10G U11A C12U C13U	1.42
U7C U8G U10G U11C C12A C13G	1.1
U8C G9A U10C U11C C12A C13A	1.13
U7G G9U U10A U11G C12A C13G	1.11
U7G G9A U11C C13G	1.09
U7C U8A G9C U10A C12G	1.26

Variant	aptazyme ON/OFF ratio
U7A G9U U10C	2.35
U7C U8C G9U U10G U11A C12A C13U	1.17
U8A G9A U10G C12G C13G	1.1
U7A U8C G9C U10G C12G C13A	1.05
U7A U8C G9U U11A C12U C13U	1.16
G9C U11G C12A C13G	1.03
U7G U8C U10C C12U	3.24
U7C U8A U10G U11A C12A C13G	1.08
U7A U8A U11C C12G	1.17
U7C G9U U11A C12A C13A	1.25
U7G U8G G9C U10C U11A	1.64
U7C G9C U10C C12U	1.09
U7C U8C G9C U10A U11C C12A C13G	1.09
U7A U8A U10C C13A	1.11
U7C U8A G9A U10G U11A C12G C13G	1.07
U7G U8G C12U C13U	1.5
U7G U8C G9C U10C U11G C13U	1.07
G9C U10G U11G C12G C13G	1.13
U8G U10G U11A C12U C13G	1.22
U7A U8C U10G U11C C13G	1.18
U7A U8A G9A U10G U11C C12U	1.05
U7C U8G U11C C12A	1.35
U7A U8C G9C U11C C12G C13G	1.13
U8A U11C C12A C13G	1.17

Variant	aptazyme ON/OFF ratio
U8G G9A U10C U11A C13A	1.1
U7C U8C G9U U10C C12U C13A	1.12
U7C U8G G9C U11C C12A	2.71
U7A U8C U10G U11C C12A C13U	1.39
U7G U11A	2.37
U7A U8C G9U U10A U11A C12U C13G	1.12
U7G G9U U10C U11G C12A C13U	1.16
U7C U8C U10A U11G C12U C13U	1.15
U7C U8G G9C U10G U11G C12G C13U	1.15
U7A U8A G9A U10C C12U C13A	1.01
U7C U8C G9U U10A U11A C12U	1.28
U7C U8G G9U U10A U11G C12G C13A	1.05
U7A U8A U10C U11G C12U	1.45
U8G G9A U10C U11C C12G C13A	1.09
U7G U8G G9C U10A U11C C12G C13G	1.05
U8G U10A C12G C13A	1.16
G9C U10C U11A C12U	1.13
U8G G9C U11G C12A	1.11
U7A U8A U10G U11A C12U	1.24
U8G U11G C12G C13G	1.08
U7G U8A G9A U10A U11G C12A C13G	1.06
U8C G9C C12U C13G	1.07
U7C U8C U10C U11G C12A	1.38
G9U U10G U11G	1.55

Variant	aptazyme ON/OFF ratio
U7C U8A U11C C13G	1.06
U7C U8A G9C U10A U11C C13G	1.05
U7C U10A U11G C12A C13U	1.17
U7C U10A U11C C12U C13A	1.05
U10G U11A C13U	1.05
U7G U8C U10G U11G C12G	1.22
U7G U8C G9C U11A C12U	1.23
U8G G9U U10C U11C	1.05
U8G G9A U10G U11C C13A	1.06
U7G U8A U10G U11C C12A C13U	1.2
U7C U8C U10C C12A C13U	1.35
U8G G9U U10C U11C C12U C13G	1.02
U7C U8C G9C U10A C12A C13A	1.09
U7C U8C U10G C12A	1.13
U7G U8G G9U U10G U11G C12G	1.16
U7A G9U C12A	0.896
U7C G9U U10A U11C C12U C13G	1.03
U8G U10C U11A C12U	1.28
U7A G9C U11G C12U C13U	1.32
U7C U8C G9C U10G U11C C12G C13A	1.14
U7C U8C G9U U10A U11C C12A C13A	1.17
U8C U10G U11C C12A C13U	1.32
U7G U8A U10C U11C C12U C13U	1.13
U8G G9C U10G U11A C12A	1.17

Variant	aptazyme ON/OFF ratio
U7A U8G G9A U10C U11G C12A C13A	1.18
U8G G9C U10C C12U C13U	1.04
G9U U10C U11C C13A	1.04
U7G U8G U10G U11C C12G C13U	1.4
U7G U8A G9A U11A C12U	1.25
U7G U8G G9C U10G U11A	1.32
U7G U8C G9C C12U C13G	1.12
U7C U8C U10A U11A C12U	1.16
U7A U8G G9C U10G U11A C13A	1.11
U7A G9A U10G U11A C12G C13U	1.17
U7A U8G G9C U11G C12U	1.43
U8A G9A U10C U11A C12G C13A	1.19
U7G U8A G9U U10C U11G C12A C13G	1.05
U7A U8G G9U U10G U11C C12A C13A	1.14
U10G U11G C12U C13A	1.32
U8G G9A U10A U11A C12G C13G	1.39
U7A U8C U10G U11A C13G	1.2
U8C U10A U11G C12A C13U	1.33
U7C U8A G9A U10G C12A	1.15
U7A U8A G9C C12U C13U	1.42
U7G U8G G9U U11G C12G C13U	1.22
U8G U10G U11A C12A C13U	1.3
U7G U8G G9C U10A U11C C12U C13U	1.04
